These results are taken from IntAct's records for PubMed 22483105.

For this assay, the target named is ubc4_yeast UBC4 (UniProt P15731).
Sequence of ubc4_yeast UBC4 (P15731 whole entry): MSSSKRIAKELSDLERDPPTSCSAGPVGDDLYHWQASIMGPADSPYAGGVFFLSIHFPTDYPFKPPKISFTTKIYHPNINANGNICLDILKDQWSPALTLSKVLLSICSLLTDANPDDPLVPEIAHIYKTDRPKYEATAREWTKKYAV

As for “E3 ubiquitin-protein ligase RSP5 (Saccharomyces cerevisiae), P39940 D614M”, the “effect of a mutation on the interaction” value is recorded as “decreasing interaction strength”.
Regarding “E3 ubiquitin-protein ligase RSP5 (Saccharomyces cerevisiae), P39940 L607M”, the “effect of a mutation on the interaction” value is given as “decreasing interaction strength”.
With “E3 ubiquitin-protein ligase RSP5 (Saccharomyces cerevisiae), P39940 S594M”, the “effect of a mutation on the interaction” value is given as “decreasing interaction strength”.
On to “E3 ubiquitin-protein ligase RSP5 (Saccharomyces cerevisiae), P39940 W597M”, for which the “effect of a mutation on the interaction” value was “disrupting interaction strength”.
Regarding “E3 ubiquitin-protein ligase RSP5 (Saccharomyces cerevisiae), P39940 Y647M”, the “effect of a mutation on the interaction” value is given as “decreasing interaction strength”.
